Experimental data as given in PMC2253636.

Target: IEk on the surface of CH27 murine B-cell lymphoma cells (mouse (endogenous in CH27))
Experiment: flow cytometry on cells; CH27 cells incubated with 1 mM biotinylated peptide for 20 h at 37 °C, washed, stained with streptavidin-Cy5; occupancy of IEk calculated against cells stained with 14-4-4s-bio and streptavidin-Cy5

- percent of IEk molecules occupied: 17%
Substance: biotinylated ER60 peptide (from UniProt P27773 448-461)
